Measurements published in IntAct's records for PubMed 31585087.

B1: GRB2-associated-binding protein 1 (Homo sapiens), Q13480 (parent)
chain: MSGGEVVCSGWLRKSPPEKKLKRYAWKRRWFVLRSGRLTGDPDVLEYYKNDHAKKPIRIIDLNLCQQVDAGLTFNKKEFENSYIFDINTIDRIFYLVADSEEEMNKWVRCICDICGFNPTEEDPVKPPGSSLQAPADLPLAINTAPPSTQADSSSATLPPPYQLINVPPHLETLGIQEDPQDYLLLINCQSKKPEPTRTHADSAKSTSSETDCNDNVPSHKNPASSQSKHGMNGFFQQQMIYDSPPSRAPSASVDSSLYNLPRSYSHDVLPKVSPSSTEADGELYVFNTPSGTSSVETQMRHVSISYDIPPTPGNTYQIPRTFPEGTLGQTSKLDTIPDIPPPRPPKPHPAHDRSPVETCSIPRTASDTDSSYCIPTAGMSPSRSNTISTVDLNKLRKDASSQDCYDIPRAFPSDRSSSLEGFHNHFKVKNVLTVGSVSSEELDENYVPMNPNSPPRQHSSSFTEPIQEANYVPMTPGTFDFSSFGMQVPPPAHMGFRSSPKTPPRRPVPVADCEPPPVDRNLKPDRKVKPAPLEIKPLPEWEELQAPVRSPITRSFARDSSRFPMSPRPDSVHSTTSSSDSHDSEENYVPMNPNLSSEDPNLFGSNSLDGGSSPMIKPKGDKQVEYLDLDLDSGKSTPPRKQKSSGSGSSVADERVDYVVVDQQKTLALKSTREAWTDGRQSTESETPAKSVK
partner: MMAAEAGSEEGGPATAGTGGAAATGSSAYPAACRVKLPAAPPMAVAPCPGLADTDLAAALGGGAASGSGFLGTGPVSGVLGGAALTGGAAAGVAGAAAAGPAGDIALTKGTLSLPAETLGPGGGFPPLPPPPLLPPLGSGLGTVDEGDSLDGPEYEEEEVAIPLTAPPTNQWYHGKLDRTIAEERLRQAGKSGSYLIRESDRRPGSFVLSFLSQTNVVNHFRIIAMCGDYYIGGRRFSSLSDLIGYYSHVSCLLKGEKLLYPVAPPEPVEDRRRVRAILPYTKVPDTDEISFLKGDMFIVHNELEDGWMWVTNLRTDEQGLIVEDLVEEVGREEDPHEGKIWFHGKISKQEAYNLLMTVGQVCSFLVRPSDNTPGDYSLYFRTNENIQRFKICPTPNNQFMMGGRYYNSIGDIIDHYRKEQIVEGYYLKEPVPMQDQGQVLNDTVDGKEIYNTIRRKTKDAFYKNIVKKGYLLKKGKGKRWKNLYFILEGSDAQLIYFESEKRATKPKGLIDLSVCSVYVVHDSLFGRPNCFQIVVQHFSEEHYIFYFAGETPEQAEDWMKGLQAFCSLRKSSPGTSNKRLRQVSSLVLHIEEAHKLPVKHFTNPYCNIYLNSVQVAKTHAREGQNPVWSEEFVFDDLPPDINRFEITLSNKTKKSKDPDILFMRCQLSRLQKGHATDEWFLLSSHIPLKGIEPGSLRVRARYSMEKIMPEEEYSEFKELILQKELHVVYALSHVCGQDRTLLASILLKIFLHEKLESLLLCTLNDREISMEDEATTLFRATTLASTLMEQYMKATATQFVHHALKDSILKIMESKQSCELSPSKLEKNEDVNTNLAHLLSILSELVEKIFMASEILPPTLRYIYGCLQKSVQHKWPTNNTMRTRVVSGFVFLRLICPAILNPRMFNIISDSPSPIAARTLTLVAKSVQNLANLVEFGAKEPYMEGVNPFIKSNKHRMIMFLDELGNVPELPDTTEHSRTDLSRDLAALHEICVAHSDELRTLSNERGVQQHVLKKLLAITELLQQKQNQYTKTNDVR

Variants of: B1
Conditions: with rasa1_rat Rasa1, P50904

Variant	effect of a mutation on the interaction
P320S	disrupting interaction strength
